Experimental findings from US20250262297A1, “ALLERGY ANTIGEN AND EPITOPE THEREOF” (HOYU CO., LTD., priority 2017, published 2025) are described below.

The test system of the experiment is IgE antibodies from soybean-allergic patients. Description: Immunoblotting of two-dimensional electrophoresis pattern of soybean proteins with patient serum. The format is binding, human. The settings on record: spot in 2D electrophoresis gel of soybean proteins; patient serum compared with healthy subject serum. From the text: Transfer to membrane was done using the following transfer system and transfer buffer. • Transfer system: XCell SureLock Mini-Cell and XCell II Blot Module (produced by Life Technologies) • Transfer buffer: NuPAGE Transfer Buffer (X20) (produced by Life Technologies), used in a form diluted 20-fold with milliQ water.
To be specific, proteins in the two-dimensional electrophoresis gels were transferred to a membrane (PVDF membrane) according to the following procedure. • (1) The PVDF membrane was immersed in 100% methanol followed by milliQ water, and then moved into the transfer buffer to hydrophilize the PVDF membrane. • (2) After sponge, filter paper, the gels treated by second-dimensional SDS-PAGE, the hydrophilized PVDF membrane, filter paper, and sponge were put in place in this order, the transfer system was energized at a constant voltage of 30 V for one hour.
Immunoblotting of the membrane was carried out using, as a primary antibody, a serum sample from a patient with a soybean allergy or a serum sample from a healthy subject.
Immunoblotting of the membrane was carried out according to the following procedure. • (1) The transferred membrane was shaken in a 5% skim milk/PBST solution (a PBS buffer containing 0.3% Tween 20 nonionic surfactant) at room temperature for one hour. • (2) The membrane was left to stand in a solution of 3% primary antibody serum in 5% skim milk/PBST at room temperature for one hour. • (3) The membrane was washed with a PBST solution (5 min.×3 times). • (4) The membrane was left to stand in a 1:2500 dilution of the secondary antibody, anti-human IgE-HRP (horseradish peroxidase), with a 3% skim milk/PBST solution at room temperature for one hour. • (5) The membrane was washed with a PBST solution (5 min.×3 times). • (6) The membrane was left to stand in Pierce Western Blotting Substrate Plus (produced by Thermo Fisher Scientific) for 5 minutes.
The membrane obtained through the foregoing series of treatments was subjected to fluorescent image scanning on Typhoon 9400 (produced by GE).
The immunoblots obtained with the serum from the soybean-allergic patient were compared with those obtained with the control serum from the healthy subject.
For orientation: Immunoblotting shows a protein as a band on a membrane.

B1: uncharacterized protein LOC100813859 (protein)
chain: MASEESQNKPPSEQSTTELITSAKLVAEAAQSALKSDSDKVDKAKVADAAGDLLDAAGKYGKLDDKQGIGQYVDKAADYLHNYQGDNTTAPSQPAESKGEESGGGLGGLANLAGGFFKK
Turning to B1, the “specific binding to IgE antibodies from soybean-allergic patients” value (“specific binding to IgE antibodies” for short) is “specific binding”.

B2: uncharacterized protein At3g49720-like isoform X2 (protein)
chain: MTRKQASSTRRGGLSGVLHSKSKSSPLLSISLVLFVAILLILYACIGSGILGGRKDVISMAEDDFSCTFEVPSAIPVLKNAYGGSMKNVLHVGPESCSVVSKFLREGETEAWGVEPYDLDDADRNCKALVQKGIIRVADIKFPLPYRVKSFSHVIVSDALDYLSPKYINKTLPELARVSSDGIIIFTGYPGQPRAKIAPLSKFGRPHRC
In the case of B2, the “specific binding to IgE antibodies” value was “specific binding”.

B3: ATP synthase subunit O, mitochondrial-like (protein)
chain: MALCNRVRSGISLFTKSTFLTSQRSTLQRSLVAPFISLASRNYANVPGQKETKVKVPLALFGGSGNYASALYIASVKANAVEKVETELLQFVEAVKNSPIFSQFIRDLSVAKDVRVKVIQDICGEAKFSDVTKNFLVIVAENGRLKNIDTIAKRFAQLSMAYKGEVQATVTTVVPLPPEEEKALKETLQEIIGSGAKVHLEQKIDPSILGGLVLEFSQKVFDMSIKTRAQQMERILREPVSIANI
Regarding B3, the “specific binding to IgE antibodies” value was “specific binding”.

B4: phosphoglycerate kinase, cytosolic (protein)
chain: MATKRSVGTLKEGDLKGKRVFVRVDLNVPLDDNLNITDDTRVRAAVPTIKYLTGYGAKVILSSHLGRPKGVTPKYSLKPLVPRLSQLLGIEVTMANDSIGEEVEKLVTQLPEGGVLLLENVRFYKEEEKNDPEFAKKLASLADLYVNDAFGTAHRAHASTEGVAKYLKPSVAGFLMQKELDYLVGAVSNPKRPFAAIVGGSKVSSKIGVIESLLEKVNVLLLGGGMIFTFYKAQGYSVGSSLVEEDKLSLATTLLEKAKAKGVSLLLPTDVVIADKFAADANSKTVPASSIPDGWMGLDIGPDSIKTFGEALDTTQTIIWNGPMGVFEFDKFATGTEAIAKKLAELSGKGVTTIIGGGDSVAAVEKVGLADKMSHISTGGGASLELLEGKQLPGVLALDDA
modifications: Glycine max
Consider B4, for which the “specific binding to IgE antibodies” value was “specific binding”.

B5: 35 kDa seed maturation protein isoform X1 (protein)
chain: MASRQQFKEDRAEAAAKLAAKDIGDINRTNERDEGYDLHDEANFKQARAEAAAKLAAKDLEDANRLRDNTFNTWKEQHQHDENKPGVIGSMFRAAKEAVVGKPHHEEVYAKETKMGEYSDYATQKARETKQKAGEYTDYAAQKAKETKDYAAEKAKNAKDTTVQKAGEYKDYTAEKAKNAKDTTVQKAGEYKDYTAEKAIEGKDSAVGKLGELKESAADAAKRAMGFFTGGNKDQTREEEEETRRSMQEVRVQDKEYGTGRGTGEKLVIKMEESRPGAVADALKAANRAMDGDMEEEGVLHVERRREKM
Turning to B5, the “specific binding to IgE antibodies” value is on record as “specific binding”.

B6: seed maturation protein PM34 (protein)
chain: MASGEQKFPPQQQQTQPGKEHAMTPVPQFTSPDYKPSNKLQGKIALVTGGDSGIGRAVCNLFALEGATVAFTYVKGHEDKDARDTLEMIKRAKTSDAKDPMAIASDLGYDENCKRVVDEVVSAYGCIDILVNNAAEQYECGTVEDIDEPRLERVFRTNIFSYFFMARHALKHMKEGSSIINTTSVNAYKGHAKLLDYTSTKGAIVAYTRGLALQLVSKGIRVNGVAPGPIWTPLIPASFKEEETAQFGAQVPMKRAGQPIEVAPSYVFLASNQCSSYITGQVLHPNGGTVVNG
modifications: Glycine max
notes: spot also identified as uncharacterized protein LOC100809384 and hypothetical protein GLYMA_10G155300
In the case of B6, the “specific binding to IgE antibodies” value is recorded as “specific binding”.

B7: seed maturation protein PM22 (protein)
chain: MSQLLDKAKNFVSEKVNDMAKPEASVTDVDFKRVSKDNVEYLAKVSVRNPYSTSIPICEINYSFKSASREIASGKIPDPGSLKAKDTTMVDVPVKVPYSILMSLAKDIGADWDIDYQLDLGLVIDVPVIGIFTIPLSQKGEIKLPTLSTMFA
Regarding B7, the “specific binding to IgE antibodies” value was “specific binding”.

B8: eukaryotic translation initiation factor 5A-2 (protein)
chain: MSDEEHHFESKADAGASKTYPQQAGTIRKNGYIVIKGRPCKVVEVSTSKTGKHGHAKCHFVGIDIFTAKKLEDIVPSSHNCDVPHVNRTDYQLIDIAEDGFLSLLTENGNTKDDLKLPTDESLLTQIKDGFAEGKDLVVSVMSAMGEEQICALKDIGPKN
modifications: Glycine max
notes: spot also identified as uncharacterized protein LOC100305510
In the case of B8, the “specific binding to IgE antibodies” value is on record as “specific binding”.

B9: P24 oleosin isoform A (protein)
chain: MTTQVPPHSVQVHTTTHRYEAGVVPPGARFEPPRYEAGVKAPSIYHSERGPTTSQVLAVLAGLPVGGILLLLAGLTLAGTLTGLAVATPLFVLFSPVLVPATVAIGLAVAGFLTSGAFGLTALSSFSWILNYIRETQPASENLAAAAKHHLAEAAEYVGQKTKEVGQKTKEVGQDIQSKAQDTREAAARDAREAAARDAREAAARDAKVEARDVKRTTVTATTATA
modifications: Glycine max
For the molecule B9, the “specific binding to IgE antibodies” value is on record as “specific binding”.

B10: superoxide dismutase [Mn], mitochondrial (protein)
chain: MAARALLTRKTLATVLRNDAKPIIGVGITAAATHSRGLHVYTLPDLDYDYGALEPAISGDIMQLHHQKHHQTYITNYNKALEQLQDAIAKKDSSAVVKLQGAIKFNGGGHVNHSIFWKNLAPVREGGGEPPKGSLGWAIDTHFGSFEALIQKVNAEGAALQGSGWVWLGLDKELKRLVVETTANQDPLVTKGPNLVPLIGIDVWEHAYYLQYKNVRPDYLKNIWKVINWKYASEVYEKESS
modifications: Glycine max
notes: spot also identified as hypothetical protein GLYMA_04G221300
For the molecule B10, the “specific binding to IgE antibodies” value is listed as “specific binding”.

B11: 14-3-3-like protein (protein)
chain: MAAAPSPREENVYMAKLAEQAERYEEMVEFMEKVSAAADNEELTVEERNLLSVAYKNVIGARRASWRIISSIEQKEESRGNEDHVSVIRDYRSKIESELSNICDGILKLLDSRLIPSASSGDSKVFYLKMKGDYHRYLAEFKTGAERKEAAESTLSAYKAAQDIANAELPPTHPIRLGLALNFSVFYYEILNSPDRACNLAKQAFDEAIAELDTLGEESYKDSTLIMQLLRDNLTLWTSDMQDDGADEIKEAAPKPDDQ
As to B11, the “specific binding to IgE antibodies” value is “specific binding”.

B12: uncharacterized protein LOC100306570 (protein)
chain: MASQSNTKSVHDFTVKDARGNNVNLADYKGKVLLIVNVASQCGLTNSNYTELNQLYEKYKGKGLEILAFPCNQFGAQEPGTNEEIVEFACTRFKAEFPIFDKVDVNGDNAAPLYKFLKSSKGGLFGDSIKWNFSKFLVDKDGNVVDRYAPTTSPLSIEKDIKKLLDA
With B12, the “specific binding to IgE antibodies” value is on record as “specific binding”.

B13: alcohol dehydrogenase 1 (protein)
chain: MSSSTVGQVIKCKAAVSWEAGKPLVIEEVEVAPPQAGEVRLKILYTSLCHTDVYFWEAKGQTPLFPRIFGHEAGGIVESVGEGVTHLKPGDHALPVFTGECGECPHCKSEESNMCDLLRINTDRGVMIHDSQTRFSIKGQPIYHFVGTSTFSEYTVVHAGCVAKVNPAAPLDKICVLSCGICTGLGATINVAKPKPGSSVAIFGLGAVGLAAAEGARISGASRIIGVDLVSSRFEEAKKFGVNEFVNPKDHDKPVQEVIAAMTNGGVDRAVECTGSIQAMISAFECVHDGWGVAVLVGVPNKDDAFKTHPVNFLNERTLKGTFYGNYKPRTDLPSVVEKYMNGELELEKFITHTVPFSEINKAFDYMLKGESIRCIIRMGE
modifications: Glycine max
notes: spot also identified as alcohol dehydrogenase 1-like
As to B13, the “specific binding to IgE antibodies” value is “specific binding”.

B14: probable fructokinase-4 (protein)
chain: MALNNGVPATGTGLIVSFGEMLIDFVPTVSGVSLAEAPGFLKAPGGAPANVAIAVSRLGGKAAFVGKLGDDEFGHMLAGILKENGVRADGINFDQGARTALAFVTLRADGEREFMFYRNPSADMLLKPEELNLELIRSAKVFHYGSISLIVEPCRSAHLKAMEVAKESGCLLSYDPNLRLPLWPSAEEARKQILSIWEKADLIKVSDAELEFLTGSDKIDDESALSLWHPNLKLLLVTLGEHGSRYYTKSFKGSVDAFHVNTVDTTGAGDSFVGALLAKIVDDQSILEDEPRLREVLKFANACGAITTTQKGAIPALPKEEAALKLIKGGS
Regarding B14, the “specific binding to IgE antibodies” value is given as “specific binding”.

B15: uncharacterized protein LOC100499771 (protein)
chain: MAPIAVGDVIPDGILAYLDEENKPQTVSIHSLAAGKKVIIFGVPGAFTPTCSLKHVPGFIERAEELKGKGVDEIICISVNDPFVMNSWAKTFPENKHVKFLADGAAKYTNALGLELDLTDKGLGVRSKRFALLVEDLKVKVANVESGGEFTISSAEEIIKAL
modifications: Glycine max
notes: spot also identified as hypothetical protein GLYMA_09G192800
For the molecule B15, the “specific binding to IgE antibodies” value was “specific binding”.
